Results reported in PMC13624870.

Tests used:
[1] = target: uniformly 15N-labeled Aβ40; experiment: NMR titration; 2D 1H–15N SOFAST–HMQC of 20 µM 15N-labeled Aβ40 with 200 µM ZF2–4 or ZFx′; 20 mM HEPES, pH 7.4, 1 mM DTT, 10% v/v D2O; 10°C
amyloid-β 40 (Aβ40) [2] = target: amyloid-β 40 (Aβ40)
[3] = target: fluorophore-conjugated Aβ40 (HF488Aβ40); experiment: other fluorescence titration; fluorescence quenching of fluorophore-conjugated Aβ40 (HF488Aβ40) by ZF2–4; conditions in Figure S9
amyloid-β 40 (Aβ40) [4] = experiment: ITC; ZF2–4 (300 µM) titrated into monomeric Aβ40 (20 µM); one-set-of-sites model; 20 mM HEPES, pH 7.4, 1 mM DTT; 10°C; heat of dilution of ZF2–4 subtracted

average decrease in NMR signal intensity of 15N-labeled Aβ40 [1]: 41.9% | decrease in the size of Aβ40 liquid droplets (LLPS, confocal microscopy) with equimolar ZF2–4 (100 µM each) relative to Aβ40 alone (amyloid-β 40 (Aβ40) [2]): 93.7% | Kd [3]: 0.32 µM | stoichiometry N (Aβ40 per ZF2–4) [3]: 1.5 | Kd (amyloid-β 40 (Aβ40) [4]): 1.96 µM | dH (amyloid-β 40 (Aβ40) [4]): -5.48 kJ/mol | stoichiometry N (Aβ40 per ZF2–4) (amyloid-β 40 (Aβ40) [4]): 1.7
Substance: ZF2–4 (tandem array of three Cys2His2-type zinc finger modules of PARIS) (domain or fragment)
